Source: patent US20140322216A1 (University of Pennsylvania, published 2014)

Legend:
[1] = target: T1, full-length glycosylated recombinant hGPC3 protein expressed in a murine myeloma cell line (human, UniProt P51654 25-559, limits assumed); experiment: direct ELISA on rhGPC3 coated at 0.5 ug/ml
T1 construct: Bought protein; also called rhGPC3; full length hGPC3 protein expressed by mammalian cells
Protocol: (§1) FIG. 4A depicts the results of immunoblot analysis of binding of scFv to rhGPC3. The antigens including rhGPC3 and GST protein were spotted onto cellulose membrane (10 ng/each). After the blocking step the membrane were incubated with the scFvs antibody in room temperature for 1 h. The binding of scFv to antigen was detected by incubation with mouse anti-V5 mAb following by infrared dye IR680-labeled anti-mouse antibodies. PBS was used as negative control. FIG. 4B depicts results of direct ELISA for affinity determination of scFv 3E11. Two different concentrations of rhGPC3 protein (0.5 and 1.0 ug/ml) were coated and incubated with serial diluted scFv 3E11. For detection, mouse-sourced anti-V5 mAb following HRP-conjugated anti-mouse antibody and SureBlue substrate (measured at 450 nm) was used. FIG. 4C depicts EC50 values for 5 candidate scFvs determined by direct ELISA, Assays were performed twice separately for each scFv.
(§2) After three washing steps with PBS/0.1% Tween-20 (PBST), 300 ul per well of blocking solution (2% milk in PBS pH 7) was added for 2 h at room temperature then washed three tinmes with PBST. Candidate scFv starting at 100 ug/ml were added with serial dilutions, incubated for Ih at room temperature followed by three washing steps with PBST, scFv binding was detected by adding anti-V5 HRP (Invitrmgen), washing ×4 with PBST, washing ×1 with PBS, then adding 50 ul/well of TMB peroxidase substrate (KPL, Gaithersburg Md.) plus peroxidase substrate solution B at 1:1 ratio, then the reaction was stopped using 50 ul of 0.5M H₂SO₄. OD450 was measured using a BioRad 680 microplate reader. For determination of functional affinity, half maximal binding concentration (EC50) was calculated with non-linear regression curve fit algorithm using the software program PRISM (GraphPad Software, San Diego, Calif.). rhGPC3 expressed in a murine myeloma cell line which was commercially obtained from R&D Systems (Minneapolis Minn.).

[2] = target: T1, full-length glycosylated recombinant …; experiment: direct ELISA on rhGPC3 coated at 1 ug/ml
Protocol: as §1, §2

[3] = target: GST protein (UniProt P08515 1-218 = GST); experiment: dot blot, 10 ng GST per spot, scFv detected with anti-V5 mAb and IR680 anti-mouse
Sequence of GST protein (P08515 whole entry): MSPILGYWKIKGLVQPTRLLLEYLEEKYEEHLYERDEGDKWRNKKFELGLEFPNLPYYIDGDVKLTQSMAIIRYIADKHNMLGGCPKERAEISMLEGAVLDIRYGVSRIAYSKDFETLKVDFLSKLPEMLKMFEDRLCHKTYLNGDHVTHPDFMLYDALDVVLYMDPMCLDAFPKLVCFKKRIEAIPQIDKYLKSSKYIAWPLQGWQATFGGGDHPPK
Protocol: as §1

[4] = target: T1, full-length glycosylated recombinant …; experiment: direct ELISA, rhGPC3 coated at 1 ug/ml; rhGPC3 at 1 ug/ml
Protocol: as §1
(§3) After three washing steps with PBS/0.1% Tween-20 (PBST), 300 ul per well of blocking solution (2% milk in PBS pH 7) was added for 2 h at room temperature then washed three tinmes with PBST. […] OD450 was measured using a BioRad 680 microplate reader. […]

[5] = target: T1, full-length glycosylated recombinant …; experiment: direct ELISA on rhGPC3, lower coat (open circles; key prints '0.5mg/ml', legend says 0.5 ug/ml)
Protocol: as §1, §3

[6] = target: T1, full-length glycosylated recombinant …; experiment: ELISA on rhGPC3 precoated at 1 ug/ml; drawn table headed 'Table 1. Kd of scFv candidates', column EC50 (nM)
[7] = target: T1, full-length glycosylated recombinant …; experiment: direct ELISA, rhGPC3 coated at 0.5 ug/ml; rhGPC3 at 0.5 ug/ml
Protocol: as §1, §3

T1 sequence (P51654 25-559 limits assumed): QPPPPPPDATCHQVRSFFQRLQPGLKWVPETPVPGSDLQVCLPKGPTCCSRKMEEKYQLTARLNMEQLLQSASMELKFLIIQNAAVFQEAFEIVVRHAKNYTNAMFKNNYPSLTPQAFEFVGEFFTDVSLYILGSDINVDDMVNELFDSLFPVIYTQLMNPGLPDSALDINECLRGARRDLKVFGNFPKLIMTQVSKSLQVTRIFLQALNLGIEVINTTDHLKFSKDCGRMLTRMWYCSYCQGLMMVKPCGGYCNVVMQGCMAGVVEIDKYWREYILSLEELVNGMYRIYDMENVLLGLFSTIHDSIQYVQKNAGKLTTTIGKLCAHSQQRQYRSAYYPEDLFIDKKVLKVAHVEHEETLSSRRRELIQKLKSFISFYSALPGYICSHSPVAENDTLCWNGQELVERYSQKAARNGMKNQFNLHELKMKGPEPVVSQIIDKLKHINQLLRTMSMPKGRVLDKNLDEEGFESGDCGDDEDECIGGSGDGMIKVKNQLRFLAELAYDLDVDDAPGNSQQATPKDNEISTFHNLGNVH

B1: scFv 3D8 (scFv, V domains shown)
VH: QVQLVQSGGGLAQPGGSLRLSCAASGSSFSTFVLSWVRQTPGKGLQWVSTISGSGTSTYYADSVKGRFTVSRDNAKNTQYLQMNSLRAEDTAIYYCARHKSFGVQWLWGQGALVVRLL
VL: VHIVMTQSPLSLPVTLGQPASISCWSSQSLVYGDGNTYLNWFQQRPGQSPRRLIYKVSNRDSGVPDRFSGSGSGTDFTLKISRVEAEDVGVYYCMQGTHWPPGTFGGGTKLEIK
notes: Human scFv secreted by yeast, one polypeptide with His and V5 tags
B1 showed an EC50 [1] of 106 nM and an EC50 [2] of 94.7 nM.

B2: scFv 4G5 (scFv, V domains shown)
VH: QVQLQESGLGLVKPSETLSLTCAVSGYSITSGYYWGWIRQTPGKGLEWIGRIYYGGSTHYNPSLQSRVTISVDTAKNQFSLKLSSVTAADTAVYYCARDRNYQSLSGYCLDYWGQGKVVTVSS
VL: EIVLTQSPGTLSVSPGERATLSCRASQSVSSHIAWYQQKPGQAPRLLIHGASTRATGVPARFSGSGSGTEFTLTISSLQSEDFAVYYCQQYNKWPPEYTFGQGTKLEIK
notes: as for B1
For B2, the EC50 [1] was 38.8 nM and the binding result [3] was “no binding”.

B3: scFv 2G9 (scFv, V domains shown)
VH: QVQLQESGPGLVKPSETLSLSCTVSGGSISSSSYYWAWIRQPPGKGLEWIGNIYYSGSTYYNPSLKSRVTISVDTSKNQFSLKLSSVTAADTAVYYCARFPLIRGYRYRYDEYWGQGTLVTVSS
VL: DIVMTQSPLSLPVTPGEAASISCRSSQSLLHRDGYHYLNWFLQKPGQSPQLLIYLGSNRASGVPDRFSGSGSGTDFTLKISRVEAEDVGVYYCMQAPQTPRTLLGQGTKLEIK
notes: as for B1
In the case of B3, the binding result [3] is reported as “no binding” and the EC50 [2] is reported as 111 nM.

B4: scFv 3E11 (scFv, V domains shown)
VH: QVQLVQSGGGVVQPGRSLRLSCAASGFTFSSYGLHWVRQAPGKGLEWVAAISYDGSKKYYADSVKGRLTISRDNSKNTLYLQMNSLSPEDTALYFCARGWFVEPLSWGQGTLVTVSS
VL: not shown
notes: Human scFv secreted by yeast (p416-BCCR vector), one polypeptide; purified on nickel/anti-HIS and detected with anti-V5, so it carries His and V5 tags
With B4 the EC50 [4] was 14 nM, the “EC50 (read off the curve)” value [5] was ~10 nM and the EC50 [1] was 12 nM. The EC50 [6] was 12 nM, the binding result [3] was “no binding” and the EC50 [2] was 11.1 nM. It also gave an EC50 [7] of 11 nM.
